{
  "source": "paper PMC6572100",
  "about": "“Structure of the Prx6-subfamily 1-Cys peroxiredoxin from Sulfolobus islandicus” (Acta Crystallographica. Section F, Structural Biology …, 2019)",
  "key": {"[1]": {"molecular_target": "the molecule itself", "test": "crystal structure; hanging-drop vapor diffusion, 7.5 mg/ml protein in 10 mM Tris-HCl pH 7.5; reservoir 10 mM Tris-HCl pH 7.5, 15% PEG 1500, 0.1 M MgCl2, 283 K; 2.75 Å, space group P212121, ten monomers in the asymmetric unit"}, "[2]": {"molecular_target": "the molecule itself", "test": "SEC; Superdex 200, about 2 mg protein, 50 mM Na2HPO4 pH 7.4, 150 mM NaCl; untreated protein; molecular-weight standard curve"}},
  "data": [
    {"protein": "Sulfolobus islandicus 1-Cys peroxiredoxin (1-Cys SiPrx) (enzyme, Sulfolobus islandicus REY15a, The residue numbers printed in the text (Cys49, His41, Lys24) are one lower than the positions in the printed construct (C50, H42, K25); surmise: the V at position 2 comes from the NcoI cloning site; Decamer (five homodimers) in the crystal and in solution; also called S. islandicus Bcp2; SiRe_0346; source: E. coli Rosetta, purified (HisTrap FF, dialysis); not shown: His6, C-terminal, kept; …) MVSEGRIPLIGEKFPEMEVITTHGKIKLPDDYKGRWFVLFSHPGDFTPVCTTEFYSFSKKYEEFKKLNTELIGLSVDSNISHIEWVMWIEKNLKVEVPFPIIADPMGNVAKRLGMIHAESSTATVRAVFIIDDKGTVRLILYYPMEIGRNIDEILRAIRALQLVDKAGVVTPANWPNNELIGDKVINPAPRTIKDAKMRLGQPFDWWFTYKEVKTT", "values": [
      {"measurement": "stoichiometry N", "setting": "[1]", "value": 10, "unit": "subunits"},
      {"measurement": "stoichiometry N", "setting": "[2]", "value": "~20", "unit": "subunits"}
    ]}
  ]
}
